# Measured values as given in patent publication US20190016816A1 (APTEVO RESEARCH AND DEVELOPMENT, published 2019).
# T1: human 5T4 on cells (human, UniProt Q13641 32-420)
# T1 sequence: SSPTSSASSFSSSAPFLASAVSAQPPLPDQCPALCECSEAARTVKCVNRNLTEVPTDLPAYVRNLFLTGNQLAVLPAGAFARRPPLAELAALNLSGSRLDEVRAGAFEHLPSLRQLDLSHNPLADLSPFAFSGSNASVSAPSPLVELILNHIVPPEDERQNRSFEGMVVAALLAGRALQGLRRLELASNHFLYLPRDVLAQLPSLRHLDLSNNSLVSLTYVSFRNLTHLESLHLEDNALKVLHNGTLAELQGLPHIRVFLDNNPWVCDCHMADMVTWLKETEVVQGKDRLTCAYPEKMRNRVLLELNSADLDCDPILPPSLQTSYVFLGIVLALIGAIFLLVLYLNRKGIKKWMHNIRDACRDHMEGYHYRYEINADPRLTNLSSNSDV
# Assays:
# FcγRI (CD64) = molecular target: T2, FcγRI (CD64) (UniProt P12314 16-374, limits assumed); test: flow cytometry, CHO cells stably expressing CD64, fluorescent anti-human IgG secondary, MFI (mean)
# T2 construct: whole, on cells
# T2 sequence (P12314 16-374 limits assumed): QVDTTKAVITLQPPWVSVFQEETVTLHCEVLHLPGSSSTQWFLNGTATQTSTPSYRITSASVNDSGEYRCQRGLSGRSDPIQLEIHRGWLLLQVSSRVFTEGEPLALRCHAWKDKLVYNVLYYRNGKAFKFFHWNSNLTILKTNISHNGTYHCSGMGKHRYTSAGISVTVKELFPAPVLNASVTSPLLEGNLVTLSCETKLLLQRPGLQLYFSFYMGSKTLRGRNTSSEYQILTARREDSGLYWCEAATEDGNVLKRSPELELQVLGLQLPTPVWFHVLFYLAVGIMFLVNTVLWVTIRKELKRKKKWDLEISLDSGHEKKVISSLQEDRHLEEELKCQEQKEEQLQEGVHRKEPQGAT
# Source text: ALG.APV-210 contains mutations introduced to prevent interaction with Fcγ receptors (FcγR) that could lead to FcγR-mediated T-cell activation or ADCC, ADCP, CDC etc. Binding of ALG.APV-210 was therefore tested on CHO cell transfectants stably expressing the following FcγR: FcγRI (CD64), FcγRIIa (CD32a His131), FcγRIIb (CD32b), FcγRIIIa (CD16a Val158 and CD16a Phe158), and FcγRIIIb (CD16b). Untransfected CHO cells were used as negative control. A control human IgG1 molecule was used as a positive control. Different concentrations of ALG.APV-210 or control IgG1 were incubated with the FcγR-expressing cell lines, washed, and labeled with a secondary anti-human IgG reagent. Binding of ALG.APV-210 and the control IgG1 was detected by flow cytometry.
# human CD137 on cells [1] = molecular target: T3, human CD137 on cells (human, UniProt Q07011 24-255); test: cell-based or functional assay
# T3 sequence (Q07011 24-255 limits assumed): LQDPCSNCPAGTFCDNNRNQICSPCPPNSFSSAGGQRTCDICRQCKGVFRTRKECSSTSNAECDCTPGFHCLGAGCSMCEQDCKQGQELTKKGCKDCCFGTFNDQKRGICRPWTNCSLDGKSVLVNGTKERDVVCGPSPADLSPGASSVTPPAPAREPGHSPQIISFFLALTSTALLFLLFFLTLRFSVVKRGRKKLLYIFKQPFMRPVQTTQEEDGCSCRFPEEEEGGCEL
# human 5T4 on cells [2] = molecular target: T1, human 5T4 on cells; test: cell-based or functional assay
# human 5T4 on cells [3] = molecular target: T1, human 5T4 on cells; test: flow cytometry, HCT-116 cells, streptavidin-PE, normalized MFI of 2 pooled experiments; HCT-116 cells
# Procedure: (§1) Prior to the FACS staining, all cell lines were characterized for their 5T4 expression levels using a receptor density kit (Quantum Simply Cellular, anti-human IgG, Bangs Laboratories, Inc). Adherent cell lines were cultured according to their supplier's instructions and were harvested from their cell culture flasks using Trypsin/EDTA, counted in R10 medium in a Burker chamber, and diluted in FACS buffer (PBS+0.5% BSA, 0.05% NaN₃) to a concentration of 4×10⁶ cells/mL. 50 μL (0.20×10⁶) of cell solution was added to a 96-well FACS staining plate (Falcon #351190). Cells were incubated for 20 min in 4° C. with 50 μL of the biotinylated ALG.APV-210 (2× final concentration). The antibodies were added in a serial dilution starting at 20 μg/mL titrating down in a 12 step ½ dilution down to 0.010 μg/mL. Following 2× washing with FACS buffer, cells were incubated for 30 min in 4° C. with 100 μL of a secondary antibody (streptavidin-PE, BD #554061, diluted 1/500). […] Cells were analysed for ALG.APV-210 binding using flow cytometry (FACSVerse) by gating on single cells. MFI values (secondary antibody only subtracted) from 1 out of 2 independent experiments, as well as normalized data and EC₅₀-values of pooled data from 2 experiments were determined and plotted using GraphPad Prism 7, non-linear regression log (agonist) vs. normalized response—variable slope.
# human CD137 on cells [4] = molecular target: T3, human CD137 on cells; test: flow cytometry, MFI of the CD137 positive cells; human CD8 T cells, MFI of CD137 positive cells
# Procedure: Following 48 h of incubation with or without CD3, human and cynomolgus PBMC were harvested, pooled, recounted and diluted in FACS buffer (PBS+0.5% BSA, 0.05% NaN₃) to a concentration of 5×10⁶ cells/mL. 50 μL (0.25×10⁶ cells) of cell solution was added to a 96-well FACS staining plate (Falcon #351190). Following 10 min of Fc-blocking in RT using Beriglobin (hIgG, 200 μg/mL), cells were washed in FACS buffer and then incubated for 1 h in 4° C. with 100 μL of the biotinylated ALG.APV-210 or negative control. The antibodies were added in a serial dilution starting either at 5 μg/mL titrating down in a 12 step ⅓ dilution down to […] (exp 1) or 1 μg/mL titrating down in a 12 step ½ dilution down to 0.0005 μg/mL (exp 2). […] Cells were analysed for ALG.APV-210 binding using flow cytometry by gating on viable, single cells expressing CD3 and CD8. MFI values (FMO subtracted) from 2 independent experiments as well as normalized pooled data from 2 experiments and EC₅₀-values were determined and plotted using GraphPad Prism 7, non-linear regression log (agonist) vs. normalized response—variable slope, n=6 donors/group.
# human 5T4 on cells [5] = molecular target: T1, human 5T4 on cells; test: flow cytometry, CT26 cells transfected with human 5T4 (intermediate clone), biotinylated ALG.APV-210 + streptavidin-PE, 1 of 2 experiments
# Procedure: as §1, with “μg/mL.” for “μg/mL. Following 2× washing with FACS buffer, cells were incubated for 30 min in 4° C. with 100 μL of a secondary antibody (streptavidin-PE, BD #554061, diluted 1/500).”
# The binding (EC₅₀) of the biotinylated ALG.APV-210 to 5T4 when expressed on cells, either at endogenous levels on human tumor cells or on cells transfected to express 5T4 was assessed. […]
Binder,binding result (FcγRI (CD64)),"EC50 (nM), CD137 reporter assay with CHO/5T4 cells (human CD137 on cells [1])","EC50 (nM), CD137 reporter assay with H1975 cells (human CD137 on cells [1])","EC50 (nM), CD137 reporter assay with MDA.MB-231 cells (human CD137 on cells [1])","EC50 (nM), CD137 reporter assay with TF-1 cells (human CD137 on cells [1])","EC50 (nM), IFNγ release of human CD8+ T cells with HCT116 cells (human 5T4 on cells [2])",EC50 (human 5T4 on cells [3]),EC50 (human CD137 on cells [4]),EC50 (read off the curve) (human 5T4 on cells [5])
"ALG.APV-210 (bispecific antibody, Optimized ADAPTIR scFv-Fc-scFv homodimer with stabilizing disulfide in the 1210 scFv; also called 5T4-CD137 bispecific antibody) EVQLLESGGGLVQPGGSLRLSCAASGFTFSHGSMYWVRQAPGKGLEWVSSISSGSGSTYYADSVKGRFTISHDNSKNTLYLQMNSLRAEDTAVYYCARSSYYGSYYSIDYWGQGTLVTVSSGGGGSGGGGSGGGGSGGGGSDIQMTQSPSSLSASVGDRVTITCRASQSISSYLNWYQQKPGKAPKLLIYAASSLQSGVPSRFSGSGSGTDFTLTISSLQPEDFATYYCQQYYDNLPTFGQGTKLEIKEPKSSDKTHTCPPCPAPEAAGAPSVFLFPPKPKDTLMISRTPEVTCVVVDVSHEDPEVKFNWYVDGVEVHNAKTKPREEQYNSTYRVVSVLTVLHQDWLNGKEYKCAVSNKALPAPIEKTISKAKGQPREPQVYTLPPSRDELTKNQVSLTCLVKGFYPSDIAVEWESNGQPENNYKTTPPVLDSDGSFFLYSKLTVDKSRWQQGNVFSCSVMHEALHNHYTQKSLSLSPGSGGGGSGGGGSGGGGSPSEVQLLESGGGLVQPGGSLRLSCAASGFTFSSYAMSWVRQAPGKCLEWVSAISGSGGSTYYADSVKGRFTISRDNSKNTLYLQMNSLRAEDTAVYYCARYYGGYYSAWMDYWGQGTLVTVSSGGGGSGGGGSGGGGSGGGGSDIQMTQSPSSLSASVGDRVTITCRASQSISSFLNWYQQKPGKAPKLLIYAASSLQSGVPSRFSGSGSGTDFTLTISSLQPEDSATYYCQQTYGYLHTFGCGTKLEIKR",no binding (tested: 1000 nM),0.0092 nM,0.037 nM,0.054 nM,0.063 nM,0.17 nM,,,
"biotinylated ALG.APV-210 (bispecific antibody, also called ALG.APV-210 (biotinylated for FACS detection)) EVQLLESGGGLVQPGGSLRLSCAASGFTFSHGSMYWVRQAPGKGLEWVSSISSGSGSTYYADSVKGRFTISHDNSKNTLYLQMNSLRAEDTAVYYCARSSYYGSYYSIDYWGQGTLVTVSSGGGGSGGGGSGGGGSGGGGSDIQMTQSPSSLSASVGDRVTITCRASQSISSYLNWYQQKPGKAPKLLIYAASSLQSGVPSRFSGSGSGTDFTLTISSLQPEDFATYYCQQYYDNLPTFGQGTKLEIKEPKSSDKTHTCPPCPAPEAAGAPSVFLFPPKPKDTLMISRTPEVTCVVVDVSHEDPEVKFNWYVDGVEVHNAKTKPREEQYNSTYRVVSVLTVLHQDWLNGKEYKCAVSNKALPAPIEKTISKAKGQPREPQVYTLPPSRDELTKNQVSLTCLVKGFYPSDIAVEWESNGQPENNYKTTPPVLDSDGSFFLYSKLTVDKSRWQQGNVFSCSVMHEALHNHYTQKSLSLSPGSGGGGSGGGGSGGGGSPSEVQLLESGGGLVQPGGSLRLSCAASGFTFSSYAMSWVRQAPGKCLEWVSAISGSGGSTYYADSVKGRFTISRDNSKNTLYLQMNSLRAEDTAVYYCARYYGGYYSAWMDYWGQGTLVTVSSGGGGSGGGGSGGGGSGGGGSDIQMTQSPSSLSASVGDRVTITCRASQSISSFLNWYQQKPGKAPKLLIYAASSLQSGVPSRFSGSGSGTDFTLTISSLQPEDSATYYCQQTYGYLHTFGCGTKLEIKR",,,,,,,16 nM,0.17 nM,~10 nM
